From the supplement of paper PMC12042874
± gives the uncertainty stated by the source.

Test: amyloid nucleation score (Sup35N fusion, yeast selection) (log enrichment); library NNK3; higher = more nucleation; inactive = no reads after selection
Summary of the method: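 The nucleation score, computed with DiMSum, is the log enrichment of output over input reads, centred on the mode score of non-aggregating sequences. Sequences with under 100 input reads were dropped. Reads were generated by Illumina sequencing of plasmid inserts from psi-negative yeast with Sup35N fused to peptides of 20 random codons, induced with 100 μM copper sulfate for 24 hours and grown 7 days at 30°C on medium lacking adenine and uracil.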

Substance | amyloid nucleation score
LEGALRQDSCHKVPKLGQPV | inactive
GWNTSSQRLHSAKPSHHRR | -0.892 ± 1.9
LVFVCARQSTIEVRGKQSRM | 2.06 ± 0.065
ISKAVSWCASCRSTQV | inactive
NTIDYHYKVSCSHGYSLQSY | inactive
DRKLLYY | inactive
SASLLN | inactive
VLLFYLKVTRASTVGVLSSS | inactive
MVREFTQNSKVCSTVLCDGV | inactive
PVVRQRNALILCLSHMSCLE | 2.15 ± 0.063
IIMSQMVYIVRDIHFVCWVI | inactive
CAQARSRFTYQSAHR | inactive
IRAEGQKIYDLPSFCVLIPR | inactive
FQFWGAGGDI | inactive
VCSLVGKKRPHGSTSI | inactive
YSILYKSYYLRMHWVVASRL | inactive
WAVIKLMRSERTVGVWGSNT | inactive
VKFMMPRVDIWFKDGVRRYT | inactive
LMETSSRYTFYMKGLHRTMS | 0.428 ± 0.27
GGMYKNWGCWLELLGKTLPW | inactive
IVYRVSVFSWLVMDPDDK | inactive
KAPRCGVKAMLKGVMGFRRR | 0.531 ± 0.24
MQLIIIWATRK | 1.43 ± 0.14

Substance | amyloid nucleation score
VRISHYA | inactive
SICMNNLCVSWTMPYT | 1.5 ± 0.11
SWVVDITDRRSLFIDTPRFT | inactive
VLGILYSTE | inactive
TCIQYSKFLRA | inactive
MTLWDWDYRLIVRIQLRSTQ | inactive
RCNKRTEGVSE | inactive
MVHPDTRKRQTRGTG | inactive
IVLCMVFCWSRPWEVIIFKV | inactive
SGNTNDSSMHHQNLFFSA | inactive
QIGFCS | inactive
SSLTSNCPRKALKREVVRHW | inactive
YNRLIMSSELSMIGTTCISY | inactive
FNSGCYT | inactive
ILIYVQML | 0.521 ± 0.22
VLVCTLVTSLTDAKFRKYFS | 0.813 ± 0.2
PHMSLKTFSDS | inactive
KFSMMYLRYFVWFLRLIMAS | inactive
RNWKSYRYAVGRCDMGSELL | inactive
TVRVYIHIYHIGFLGPMRSE | 0.889 ± 0.22
LSMVRLNFTRIC | inactive
DFEVR | inactive
HNNLLSCYLMAPVFHSMMSE | inactive

Substance | amyloid nucleation score
DTYIGNINESMH | inactive
LQVLFSYYFENRSGDLVRDD | 0.641 ± 0.14
YCETSLLCCCSIPWYLNCIE | inactive
MPPRVRYR | inactive
ALLFHLG | inactive
YHPYRWLHESRL | inactive
NASCGDNVLLYLFKMTFCLG | 0.139 ± 0.25
HNCASCSVRVHDSQSEKIAT | inactive
DSMLVISVRVRTCMLGNVVA | inactive
WSVSKCDVLGLNSDVFKLWL | inactive
LLFFLAGVSSHIMYLVYARC | inactive
TDAIVFMEHSDVGRSSLDWN | inactive
MFDIVNKTSELL | inactive
SKLLIPHNNGRYSFFWSIGM | 2.04 ± 0.078
LADWQMGVPRGLQVMVCTTL | inactive
CGLPTVKTYRMEMSYNRLDW | inactive
SCAAPMIILTDKSCGRRGLG | inactive
WMVNVTGWISHGRFGYNFLI | inactive
YSRLTLVAEPFYNMGVKNLM | inactive
CVRYSRSGWVCDTGRLKDPC | inactive
NVLKSRIGRFIMQIWYTNKW | inactive
FTLARAMPLGYSQGIMKSRG | inactive
RECSNSVVLFLDVTHRVVRT | inactive

Substance | amyloid nucleation score
GIFEFKLNSLNSNERGLRAG | inactive
LCIFKVLF | 0.969 ± 0.16
SPCYISINTFPVRKILYPCI | -0.264 ± 0.64
SLFINT | inactive
YMRDVDFIRSEGG | inactive
GLGPSCSQYKP | inactive
TTGLISSNGVTG | inactive
IRPSLLMSLQNNDMMADLEV | -0.538 ± 0.55
QMVIHTVLGLKSLCVMFPSR | 1.04 ± 0.088
NLSVAMRLICVTLFLVLLGI | inactive
CSDATIGQNSGSHDQLNRSD | inactive
PLCATFKDTNRNNTVYRSLF | inactive
FIVSNYKSFVLYHLLNRMLV | inactive
LRKRELCGIPSINAAPGLLG | inactive
VTSTQVMNMLD | inactive
LCGATCLMFMLHVKCTSGFE | inactive
TKSPSGTHFLLVRFWSRCGR | inactive
NISFFTHLVSYRPTVRSSD | 1.24 ± 0.14
DSISCCSPNITAYEFYGLTG | 2.06 ± 0.066
PTIYRMFGVGQMVMN | inactive
HMSVVSVFIRRMPNASSTRR | 0.562 ± 0.13
RSMNLRSKLMSACGGFMS | inactive
LRLNLMSILKVEYRCSMITW | inactive

Substance | amyloid nucleation score
YHLYDETMCMP | inactive
LKYIDTSFMLGFSIVSLRFQ | inactive
SRMTIVKSWKRMLGRLLMRL | inactive
RTFIKAKLP | inactive
TWYVLSNDNSCVYTGPTCQ | inactive
MWEKFQWCNIINGINSVCVV | 0.962 ± 0.16
KFSYNVQLRVAWYVSGGSGT | inactive
LVVIG | inactive
RCGTLYRGG | inactive
RLQPFVHFVYCWESIVVCMW | 1.56 ± 0.068
SHISWSQYRM | 1.58 ± 0.11
MTLSVRMAEEQN | inactive
SMVGVFQKVFKTITTTYADV | inactive
VMWEPFAYLFISSWRYVSLK | inactive
TDSLFGVIDHFYENRFW | -0.845 ± 1.4
LGDNLEGNIGLLL | inactive
SPLSRWLVDNTGPLGGSLSR | inactive
MYREFYLNDQFNRPFPQSMD | inactive
MMTTGLLGVLTSCNSMT | inactive
ILFKLVKWSAMSFLRCRLFS | -0.797 ± 1.4
NSSEGDDY | inactive
KMDLFVRIVSCLVNGCQTTG | inactive
QSASFRNGFKLLLMTS | inactive

Substance | amyloid nucleation score
LVLMVSQGSYFTTI | -0.474 ± 0.57
ICIFVFFRYWHVVHVT | inactive
SNSYHIVVYVRYGHSHG | 2.62 ± 0.083
HTVVPNRVNSPCVWWLFFVW | 1.3 ± 0.11
LCLVLWVSK | inactive
VMTIGTRV | inactive
SSELLLHGGTYYKIIYK | 0.586 ± 0.12
FVERMVLVLV | inactive
FFCFLDYDYSIFEQVNEGLS | inactive
RWNEAHITSYVYSRTSMWVF | inactive
EKLIVNDYCRRSGPDMVAVD | inactive
FEWLWIFWYNLFWLWGNYSI | inactive
GGQGIYMY | inactive
KRVDYCFMIGVMTCVNHPTE | inactive
WGTLTLCTGDAGLSMTGKWV | 0.399 ± 0.43
HHYCRGSICESVSQMYWISW | inactive
RVPACAYACLAYGGYDDMAG | inactive
PDVNVRGGGQLVV | inactive
FKTKDIVRKDEANSHWSMSG | inactive
CVSIGVVMCFCKSRFAITFV | inactive
FQCRYLKHDDKDNYFKGNGK | inactive
LALFVSCICVIVSELFFTMN | inactive
GDEWGSFLECFITITSSIND | inactive

Substance | amyloid nucleation score
GLVSGGVFMMADMSRILKGK | inactive
NNRLRGHF | inactive
LVEHVEVCVIYCSCDCFSSV | 1.86 ± 0.059
PGNNFKNAAESFRKAYMCRR | inactive
DLNIIRISAYLCLANCFPST | 2.37 ± 0.054
RDPFITFWYMRIYTTGRGCV | inactive
SYRPDSCRLNTMNDFSSCCS | inactive
FDSFLWLTMNWIELIGNILV | inactive
WGMICIVYCVGIDMWLYVKC | inactive
PVTIFKETCWP | inactive
AANLDYSRLLEVLE | inactive
IWRGSKDYKSPVRHFSQAN | inactive
DTSGSCSILTRSRNMSFWRR | inactive
SGSLHACLALWTLTTYCVST | inactive
YLSINHRTTSFYWYDFAGFP | 0.537 ± 0.17
SLKSNTVCDNL | inactive
KYYLALIYSKLRMIVSCFGF | 0.033 ± 0.44
LMLMVCVN | -0.601 ± 0.74
YLPRSW | inactive
IVYGKHAWWIRLGSIHVFYY | inactive
